Substitutions are numbered along the chain they refer to. Names may count otherwise. Where only a bound is given, the exact number is not on record here.

From patent US20170145112A1 (Genentech, published 2017) come the findings set out here.

To fix the notation:
T1: Cynomolgus monkey complement Factor D (cynomolgus monkey, UniProt P00746 26-253 (human entry))
T1 construct: also called cyfD; cFD
T1 chain: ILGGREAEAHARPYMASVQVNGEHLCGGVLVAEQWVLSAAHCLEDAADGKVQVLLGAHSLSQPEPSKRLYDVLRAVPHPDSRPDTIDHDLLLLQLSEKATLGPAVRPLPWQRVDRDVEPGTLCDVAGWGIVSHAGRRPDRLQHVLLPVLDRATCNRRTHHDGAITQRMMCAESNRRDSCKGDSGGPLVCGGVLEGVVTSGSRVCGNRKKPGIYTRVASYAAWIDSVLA

B1: hu20D12.v2.3.C + PEG tetramer (Fab, V domains shown)
VH: EVQLVQSGAEVKKPGASVKVSCKASGYTFTSYYMYWVRQAPGQGLEWIGEINPYSGDTNFNEKFKSRATLTVDTSTSTAYLELSSLRSEDTAVYYCAREGGFAYWGQGTLVTVSS
VL: DIQMTQSPSSLSASVGDRVTITCKASQNVDTDVAWFQQKPGKAPKGLIRSASSRYSGVPSRFSGSGSGTDFTLTISSLQPEDFATYYCQQYNNYPLTFGQGTKVEIKR
modifications: C-terminal Cys linked through maleimide to 40K-tetramer-PEG (Sunbright PTE-400MA)
B2: AFD.v8.C + PEG tetramer (Fab, V domains shown)
VH: EVQLVQSGPELKKPGASVKVSCKASGYTFTNYGMNWVRQAPGQGLEWMGWINTYTGETTYAEDFKGRFVFSLDTSVSTAYLQISSLKAEDTAVYYCEREGGVNNWGQGTLVTVSS
VL: DIQVTQSPSSLSASVGDRVTITCITSTSIESDMNWYQQKPGKVPKLLISGGNTLRPGVPSRFSGSGSGTDFTLTISSLQPEDVATYYCLQSDSLPYTFGQGTKVEIKR
modifications: C-terminal Cys linked through maleimide to 40K-tetramer-PEG (Sunbright PTE-400MA)
B3: AFD.v14.C + PEG tetramer (Fab, V domains shown)
VH: B2 VH with N103S
VL: B2 VL
modifications: C-terminal Cys linked through maleimide to a PEG tetramer
B4: AFD.v8 Fab (Fab, V domains shown)
VH: B2 VH
VL: B2 VL
notes: Variant of lampalizumab
B5: AFD.v14 Fab (Fab, V domains shown)
VH: B2 VH with N103S
VL: B2 VL
notes: Variant of lampalizumab; also called SIESD.N103S
B6: hu20D12.v2.14 Fab (Fab, V domains shown)
VH: B1 VH with Y54T, D57E
VL: B1 VL
B7: hu20D12.v2.12 Fab (Fab, V domains shown)
VH: B1 VH with D57G
VL: B1 VL
B8: hu20D12.v2.13 Fab (Fab, V domains shown)
VH: B1 VH with Y54T, D57G
VL: B1 VL with N92E
B9: hu20D12.v2.15 Fab (Fab, V domains shown)
VH: B1 VH with D57E
VL: B1 VL
B10: hu20D12.v2.3.C+TP-Oct (Fab, V domains shown)
VH: B1 VH
VL: B1 VL
modifications: C-terminal Cys (Cys-226, EU numbering) linked through maleimide to a 40K eight-armed PEG with tripentaerythritol (TP) core
B11: hu20D12.v2.1.C+TP-Oct (Fab, V domains shown)
VH: B1 VH with Y54T, D57G
VL: B1 VL
modifications: C-terminal Cys (Cys-226, EU numbering) linked through maleimide to a 40K eight-armed PEG with tripentaerythritol (TP) core
B12: Lampalizumab (Fab, V domains shown)
VH: B2 VH with E62D
VL: B2 VL with S28D, E30D, S31D
notes: Humanized anti-Factor D Fab fragment; also called aFD.WT; FCFD4515S
B13: hu20D12.v2.11 Fab (Fab, V domains shown)
VH: B1 VH with Y54T, D57G
VL: B1 VL with R49Y, Y55R
B14: hu20D12.v2.6 Fab (Fab, V domains shown)
VH: B1 VH with Y54T, D57G
VL: B1 VL with R49S
B15: hu20D12.v2.5 Fab (Fab, V domains shown)
VH: B1 VH with D57G
VL: B1 VL with R49Y
B16: hu20D12.v2.2 Fab (Fab, V domains shown)
VH: B1 VH with Y54T
VL: B1 VL with R49Y
B17: hu20D12.v2.8 Fab (Fab, V domains shown)
VH: B1 VH with Y54T, D57G
VL: B1 VL with R49Q
B18: hu20D12.v2.4 Fab (Fab, V domains shown)
VH: B1 VH with Y54T, D57E
VL: B1 VL with R49Y
B19: hu20D12.v2.9 Fab (Fab, V domains shown)
VH: B1 VH with E50W, Y54T, D57G
VL: B1 VL with R49Y
B20: hu20D12.v2.7 Fab (Fab, V domains shown)
VH: B1 VH with Y54T, D57G
VL: B1 VL with R49K
B21: hu20D12.v2.10 Fab (Fab, V domains shown)
VH: B1 VH with Y54T, D57G
VL: B1 VL with R49Y, Y55K

In the first experiment the target is T2, Human complement Factor D, mature (human, UniProt P00746 27-253). Put plainly: cell-based or functional assay.
Target sequence in this assay (P00746 27-253): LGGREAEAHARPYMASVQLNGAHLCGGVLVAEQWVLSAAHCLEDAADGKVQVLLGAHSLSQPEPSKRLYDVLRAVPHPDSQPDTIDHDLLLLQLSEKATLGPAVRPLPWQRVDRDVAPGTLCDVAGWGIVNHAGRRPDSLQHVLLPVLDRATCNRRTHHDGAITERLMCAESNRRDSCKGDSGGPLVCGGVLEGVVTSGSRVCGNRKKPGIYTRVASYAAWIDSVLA
As to B1, the “AVG IC50 (pM), TR-FRET assay of Factor D-dependent factor B activation” value came to 35.2 pM.
On the same count and under the same terms, to B2 belongs 11 pM.
The same measure, in the same setting: the same measure for B3: 14.8 pM; for B4: 27.6 pM.
The same measure, in the same setting: to B5 belongs 34 pM.

The next experiment deals with T2, Human complement Factor D, mature. The experiment is described as follows: SPR, at the limit of detection. A general note: Surface plasmon resonance follows binding to a sensor surface in real time, without labels.
Target sequence in this assay (P00746 27-253): as above
Procedure: (§1) Kinetics and binding constant KD for Factor D binding to immobilized hu20D12 versions was determined by surface plasmon resonance (SPR) measurements on a Biacore®T200 instrument. […] After subtraction of the sensorgram observed for injection of running buffer, data were analyzed according to a 1:1 model using BiaEval software v4.1 (GE Healthcare) to extract the kinetics and affinity constants.
Regarding B6, the Kd – broadly, a measure of binding affinity in units of concentration – was about 0.01 nM.
Consider B7, for which the Kd was about 0.01 nM.
B8 came in with a Kd of about 0.01 nM.
The molecule B9 yielded a Kd of about 0.01 nM.

Another experiment has the same target. The experiment is described as follows: cell-based or functional assay. The source holds these as a separate data set.
Target sequence in this assay (P00746 27-253): as above
Take B10: the “IC50, TR-FRET assay of Factor D (50 pM) cleavage of factor B” value was 13 pM.
Still for that read-out and setting: to B11 belongs 31 pM.
Regarding B5, the “IC50, TR-FRET assay of Factor D (50 pM) cleavage of factor B” value came out at 26 pM.

For another experiment the target is unchanged. The experiment is described as follows: cell-based or functional assay. The source holds these as a separate data set.
B6: the “FRET IC50 (TR-FRET assay of Factor D-dependent factor B activation)” value turned out to be 0.025 nM.
Still for that read-out and setting: the same measure for B9: 0.024 nM.
Turning to B4, the “FRET IC50 (TR-FRET assay of Factor D-dependent factor B activation), value 1 of 2 in the cell” value came out at 0.021 nM and the “FRET IC50 (TR-FRET assay of Factor D-dependent factor B activation), value 2 of 2 in the cell” value turned out to be 0.028 nM.
With B5, the “FRET IC50 (TR-FRET assay of Factor D-dependent factor B activation), value 1 of 3 in the cell” value amounted to 0.025 nM; the “FRET IC50 (TR-FRET assay of Factor D-dependent factor B activation), value 2 of 3 in the cell” value stood at 0.034 nM; the “FRET IC50 (TR-FRET assay of Factor D-dependent factor B activation), value 3 of 3 in the cell” value amounted to 0.026 nM.

For a further experiment, the target named is T1, Cynomolgus monkey complement Factor D. Put plainly: SPR (Biacore T200), Fab format; cynomolgus Factor D (column 'KD (pM) cFD (cyno)').
With B6, binding was characterised by a dissociation constant (Kd) of 0.05 nM.
The same measure, in the same setting: to B9 belongs 0.027 nM; to B4, 0.024 nM; to B12, 0.03 nM.
Still for that read-out and setting: to B5 belongs 0.056 nM.

In a further experiment the target is T2, Human complement Factor D, mature. The experiment is described as follows: SPR (Biacore T200): Fab captured with anti-huFab kit, human Factor D injected, 25 C, 1:1 model.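 Note: sensorgrams were corrected by subtracting a blank injection of running buffer before fitting kinetic and affinity constants.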
Procedure: as §1
Turning to B6, the Kd is under 0.01 nM, the koff (usually a measure of how fast the partners let go of each other) was 8e-05 s⁻¹ and the kon (usually a measure of how fast the partners come together) is 1.5e+07 M⁻¹ s⁻¹.
For B13, in that order: 10 nM, 0.03 s⁻¹ and 3e+06 M⁻¹ s⁻¹.
The like results for B14 were, in that order, 0.143 nM, 0.0003 s⁻¹ and 2.1e+06 M⁻¹ s⁻¹.
Turning to B15, the affinity, expressed as Kd, was 0.045 nM; the koff was found to be 0.00079 s⁻¹; the association rate constant (kon) is 1.7e+07 M⁻¹ s⁻¹.
The like results for B7 were, in that order, under 0.01 nM, 0.00015 s⁻¹ and 1.8e+07 M⁻¹ s⁻¹.
For B16, in that order: 0.065 nM, 0.00095 s⁻¹ and 1.5e+07 M⁻¹ s⁻¹.
The like results for B17 were, in that order, 0.061 nM, 0.004 s⁻¹ and 6.6e+07 M⁻¹ s⁻¹.
B18 yielded a Kd of 0.028 nM, a koff of 0.00049 s⁻¹ and a kon of 1.7e+07 M⁻¹ s⁻¹.
B19 gave a Kd of 0.185 nM, a koff of 0.0063 s⁻¹ and a kon of 3.4e+07 M⁻¹ s⁻¹.
Take B8: the Kd was under 0.01 nM, the koff was 0.00013 s⁻¹ and the on-rate (kon) amounted to 4.1e+07 M⁻¹ s⁻¹.
The like results for B9 were, in that order, under 0.01 nM, 6e-05 s⁻¹ and 1.9e+07 M⁻¹ s⁻¹.
The like results for B20 were, in that order, 0.049 nM, 0.00055 s⁻¹ and 1.1e+07 M⁻¹ s⁻¹.
For B21, in that order: 6 nM, 0.03 s⁻¹ and 5e+06 M⁻¹ s⁻¹.
B4 showed a Kd of 0.0105 nM, a koff of 0.00021 s⁻¹ and a kon of 2e+07 M⁻¹ s⁻¹.
For B5, in that order: 0.0233 nM, 0.00021 s⁻¹ and 9e+06 M⁻¹ s⁻¹.
